Reference: patent US10287317B2, “Proprotein convertase subtilisin kexin type 9 (PCSK9) allosteric binding ligands to modulate serum low density lipoprotein (LDL) levels” (SRX Cardio, LLC, priority 2013, dated 2019)
*1 amine or outer side, *2 acyl side, *3 side chain or, on linkers, in order; H or OH if unused. Where no end group is shown, it is not given here. [ ]: non-standard residue; d: D form. Cys(CH2-Ph) = S-benzyl-Cys, O=C([C@H](CSCc1ccccc1)N[*:1])[*:2]; Phe(3-CH2NH2) = O=C([C@H](Cc1cccc(CN[*:3])c1)N[*:1])[*:2]; d(pS) = N[C@H](COP(=O)(O)O)C(=O)O; pS = N[C@@H](COP(=O)(O)O)C(=O)O; Trp(3-Me) = 3-methyltryptophan; βAla = NCCC(=O)O

Key:
Assay type in all cases: cell-based
PCSK9-D374Y protein = PCSK9-D374Y protein (Homo sapiens, UniProt Q8NBP7, D374Y); test: Cellular diI-LDL uptake in HuH7 cells with PCSK9-D374Y
Experimental: (§1) HuH7 cells were incubated in a 96-well plate for a total of 20 h in the absence (Cnt) or presence of 0.5 μg/ml PCSK9-D374Y protein alone (DY) or mixed with 100 uM of various SRX peptides. After 16 h, dil-LDL (5 ug/ml) was added to the incubation mixtures. After 4 h, fluorescence was measured (Ex: 520 nm/Em: 575 nm; cutoff: 550 nm). Dil-LDL uptake is calculated as RFU corrected for the number of cells.
as §1, with “PCSK9 GOF-D374Y” for “PCSK9-D374Y”, “increasing concentrations” for “100 uM”
(§2) LDL internalization was measured by uptake of a fluorescently tagged LDL molecule (diI-LDL) in the absence of exogenous PCSK9 (Cnt), in the presence of exogenous PCSK9 (normal PCSK9=WT, D374Y mutant PCSK9=DY), or in the presence of PCSK9 and a tested peptide (indicated as SRX##, or SRX if a single peptide results is shown in a graph).
(§3) Cells, such as HepG2, HuH7, FL83B or a cell line transfected with a short-hairpin PCSK9 knockdown sequence such as HepG2/shPCSK9, HuH7/shPCSK9, FL83B/shPCSK9, were seeded at 2×10^4 cells/well in a 96-well plate and cultured at 37 degC in RPMI+10% FBS. After approximately 24 hours, the cell media was aspirated off and replaced with RPMI+3-5 mg/mL LPDS (Lipoprotein Deficient Serum, Millipore) media for further experimentation. Benjannet et al., “Effects of the prosegment and pH on the activity of PCSK9: evidence for additional processing events” J Biol Chem. 285(52): 40965-40978 (2010).
(§4) Peptide activity was assessed by culturing cells with: i) no SRX peptide/PCSK9 protein complex (control, Cnt); ii) PCSK9 protein; and iii) SRX peptide/PCSK9 complex. Various permutations of these experimental conditions were also used, including: i) the addition of wild type PCSK9 (WT); ii) a mutant PCSK9 (e.g., D374Y mutant PCSK9, DY); iii) various SRX peptides and/or PCSK9 at the same concentration and/or combinations; iv) various SRX peptides and/or PCSK9 at different concentrations and/or combinations; v) the use of different cells, as mentioned above, with or without a transfected short-hairpin sequence; vi) a pre-incubation of the PCSK9 and SRX peptide (e.g., 1, hour, 2 hours, 3 hours, 4 hours etc.); vii) various temperatures including, but not limited to, body temperature (e.g., 37° C.), supraphysiologic temperature (e.g., 39° C.); and viii) with/without agitation (e.g., shaker or gentle periodic vortexing).
(§5) Cells were cultured using one of the combinations of conditions described in the preceding paragraph for 16 hours. After 16 hours, a quantity of diI-LDL (Low density lipoprotein coupled with 1,1′-dioctadecyl-3,3,3′,3′-tetramethylindocarbocyanine perchlorate) needed to bring the media concentration to 5 ug/mL of diI-LDL was added to the culture well and cells continued to be cultured under these new conditions for 4 additional hours. At the end of the 4-hour incubation period (20 total hours of cell culture), the cellular uptake was halted with the addition of 4% formaldehyde in 10 uM Hoechst 33342 in a solvent such as deionized autoclaved water or PBS, and specimens were incubated at 20° C. for 20 minutes. Cell specimens were rinsed twice with PBS and then fluorescence measured with excitation at 360 nm and emission detected at 460 nm to measure DNA content. Cell specimens were then be incubated with a 0.1% SDS in a 0.1 N NaOH solution while being shaken for 10 minutes. Fluorescence of the diI-LDL in the specimens were quantified using excitation at 530 nm and resulting emission at 580 nm.
Fluorescence measurements of diI-LDLR were normalized to estimated cell numbers, determined from the Hoechst fluorescence. […]

PCSK9-WT protein [1] = molecular target: T1, PCSK9-WT protein (Homo sapiens, UniProt Q8NBP7); test: Cellular diI-LDL uptake in HuH7 cells with PCSK9-WT; settings: HuH7, 1.0 μg/ml PCSK9-WT, 100 uM peptide (FIG. 2)
T1 construct: V5
Experimental: as §1, with “1.0” for “0.5”, “PCSK9-WT” for “PCSK9-D374Y”, “(WT)” for “(DY)”
as §2, §3, §4, §5
Fluorescence measurements of diI-LDLR were normalized to estimated cell numbers, determined from the Hoechst fluorescence. Data was analyzed for the different experimental conditions and reported as percentage relative fluorescence units (RFU) of the Cnt specimen. Percent inhibition was calculated as the difference in RFU of a peptide exposed specimen to the RFU of PCSK9-no peptide, divided by the RFU difference in PCSK9-no peptide to RFU of Cnt specimen, also expressed as [(SRX:RFU)−(PCSK9-no peptide:RFU)]/[(PCSK9-no peptide:RFU)−(Cnt:RFU)]×100.

PCSK9-WT protein [2] = molecular target: T1, PCSK9-WT protein; test: FACS analysis of cell surface LDLR in HuH7 cells with PCSK9-WT; settings: HuH7 cells, FACS, exogenous WT PCSK9 plus peptide (FIG. 1, 100 μM)
Experimental: HuH7 cells were incubated for 18 h in the absence (Cnt) or presence of 0.75 μg/ml PCSK9-WT protein alone (WT) or mixed with 100 μM of various SRX peptides. The level of LDLR at the cell surface was measured by FACS using anti human LDLR Ab and a suitable secondary Ab labeled with Alexa 647. Cell surface LDLR is reported relative to Cnt. % inhibition of activity was calculated as [SRX−WT]/[Cnt−WT]×100%.
See, FIG. 1. In that experiment, the LDLR levels of a hepatocyte culture model (HuH7 cells) were measured by fluorescence activated cell sorting (FACS) in accordance with Example III. Cell surface LDLR is reported as a percentage of Basal levels of LDLR, indicated by the Cnt_Amm.Bic, Cnt_Ac.Acid, and Cnt bars in the top graph. See, FIG. 1 (top panel). LDLR levels in the presence of exogenous PCSK9 is indicated as WT_Amm.Bic, WT-Ac.Acid, and WT, and Exogenous PCSK9 in combination with a tested peptide is indicated as SRX##. The measured LDLR levels are reported as % versus basal controls (Cnt) of the respective group. […] This was further shown a percent inhibition (% inhibition was calculated as [SRX−WT]/[Cnt−WT]×100%) where positive modulation (increase) of LDLR level is reported as positive % inhibition, and negative modulation (decrease) of LDLR level is reported as negative % inhibition. See, FIG. 1 (bottom panel).
Benjannet et al., “Effects of the prosegment and pH on the activity of PCSK9: evidence for additional processing events” J Biol Chem. 285(52): 40965-40978 (2010). The cells were then washed 3× with solution A (calcium/magnesium-free Dulbecco's PBS (Invitrogen) containing 0.5% bovine serum albumin (Sigma) and 1 g/liter glucose)). The cells were then incubated for 10 min at room temperature with 1× Versene solution (Invitrogen) followed by the addition of 5 ml of solution A. The cells were then incubated for 40 min in solution A containing a human LDLR mAb-C7 (1:100; Santa Cruz Biotechnology). Following washes, the cells were then incubated for 20 min in solution A containing a secondary antibody (Alexa Fluor 647 donkey anti-mouse antibody; 1:250; Molecular Probes).
Following suspension in PBS containing 0.2% of propidium iodide, the cells were analyzed by FACS for both propidium iodide (dead cells) and LDLR in live cells with Alexa Fluor 647 using the FACS BD LSR (BD Biosciences).

[3] = HuH7, 0.5 μg/ml PCSK9-D374Y, 100 uM peptide (FIG. 3)
[4] = HuH7, 0.5 μg/ml PCSK9 GOF-D374Y, increasing concentrations of peptide (FIG. 4)

T1 sequence (Q8NBP7 153-692): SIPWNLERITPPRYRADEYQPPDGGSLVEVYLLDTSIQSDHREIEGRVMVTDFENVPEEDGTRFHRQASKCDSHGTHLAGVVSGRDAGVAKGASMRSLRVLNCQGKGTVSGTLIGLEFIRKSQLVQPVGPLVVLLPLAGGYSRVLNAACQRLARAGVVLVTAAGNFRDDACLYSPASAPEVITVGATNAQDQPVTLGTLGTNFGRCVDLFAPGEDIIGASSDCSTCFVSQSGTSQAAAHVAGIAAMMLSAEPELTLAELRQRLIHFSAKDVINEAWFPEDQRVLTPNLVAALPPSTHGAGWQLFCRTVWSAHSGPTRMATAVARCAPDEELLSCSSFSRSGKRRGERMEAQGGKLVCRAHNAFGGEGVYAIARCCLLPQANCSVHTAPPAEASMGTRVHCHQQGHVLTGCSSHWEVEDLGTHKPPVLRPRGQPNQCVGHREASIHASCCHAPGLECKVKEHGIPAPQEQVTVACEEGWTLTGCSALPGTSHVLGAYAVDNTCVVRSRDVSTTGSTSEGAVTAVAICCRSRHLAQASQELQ
PCSK9-D374Y protein, sequence (Q8NBP7 153-692 D374Y): as the sequence (Q8NBP7 153-692) above, with D222Y counted along it

Row | LDL internalization (dil-LDL % uptake vs Cnt) (PCSK9-D374Y protein; [3]) | LDL internalization (dil-LDL % uptake vs Cnt) (PCSK9-D374Y protein; [4]) | LDL internalization (dil-LDL % uptake vs Cnt) (PCSK9-WT protein [1]) | modulation of LDLR cell surface level (PCSK9-WT protein [2]) | Substance
1 | positively modulated (increased) | positively modulated (increased) | negatively modulated (decreased) |  | LDLFFS [Compound 9]
2 | negatively modulated (decreased) |  | negatively modulated (decreased) | negatively modulate (decrease) | Phe(4-Ph)-Ala-Ser(p)-morpholine [Compound 16]
3 | positively modulated (increased) |  | negatively modulated (decreased) |  | Thr-Leu-Cys(CH2-Ph)-Thr-Trp(3-Me)-Ser-Ser-Ser(p) (TL[Cys(CH2-Ph)]T[Trp(3-Me)]SS[pS]) [Compound 7]
4 | negatively modulated (decreased) |  | negatively modulated (decreased) |  | Thr-Leu-Thr-Trp-Ser-Ser-Ser(p) (TLTWSS[pS]) [Compound 15]
5 |  |  | negatively modulated (decreased) |  | VLELYW [Compound 8]
6 | positively modulated (increased) | positively modulated (increased) | positively modulated (increased) | positively modulate (increase) | β-Ala-Phe(3-CH2NH2)-Val-D-Ser(p)-Phe-Trp ([βAla][Phe(3-CH2NH2)]V[d(pS)]FW) [Compound 2]

Row | Substance | LDL internalization (dil-LDL % uptake vs Cnt) (PCSK9-D374Y protein; [3]) | LDL internalization (dil-LDL % uptake vs Cnt) (PCSK9-D374Y protein; [4]) | LDL internalization (dil-LDL % uptake vs Cnt) (PCSK9-WT protein [1]) | modulation of LDLR cell surface level (PCSK9-WT protein [2])
7 | Thr-Leu-Cys(CH2-Ph)-Thr-Trp-Ser-Ser-Ser(p) [Compound 3] | positively modulated (increased) | positively modulated (increased) | positively modulated (increased) | positively modulate (increase)
